Experimental data taken from patent US20230190701A1, “Compounds for Treating Tauopathies and Restless Leg Syndrome and Methods of Using and Screening for Same” (The United States Government as Represented, priority 2020, published 2023).

How the values were obtained:
Type in all cases: biochemical
human PTPRD phosphatase = target: T1, human PTPRD phosphatase (Homo sapiens, UniProt P23468); assay: pNPP dephosphorylation to p-nitrophenolate (405 nm); settings: FIG. 4; peptide 4×10^−4 M, pNPP 1.8×10^−5M
T1 construct: His6 (N); made in house; host or cells: E. coli (vector optimized for E. coli codon use)
T1 sequence (P23468 with tags, fused parts or gaps): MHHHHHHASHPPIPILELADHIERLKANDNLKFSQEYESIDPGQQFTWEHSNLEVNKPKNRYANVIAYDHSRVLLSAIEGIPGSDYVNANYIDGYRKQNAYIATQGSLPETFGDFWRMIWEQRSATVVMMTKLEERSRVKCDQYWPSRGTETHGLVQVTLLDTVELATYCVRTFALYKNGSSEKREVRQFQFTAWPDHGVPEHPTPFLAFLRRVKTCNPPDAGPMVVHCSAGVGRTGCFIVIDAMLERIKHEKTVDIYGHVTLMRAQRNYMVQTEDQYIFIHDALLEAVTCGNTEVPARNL
Description: pNPP dephosphorylation to p-nitrophenolate: Triplicate assays were used for human PTPRD phosphatase, pNPP substrate and spectrophotometric 405 nm detection of the dephosphorylation product of these enzyme's activities using a Spectromax plate reader. Controls used 5×10^−5M 7-BIA with 18 min incubations as described. See G. R. Uhl et al., “Cocaine reward is reduced by decreased expression of receptor-type protein tyrosine phosphatase D (PTPRD) and by a novel PTPRD antagonist.” Proc Natl Acad Sci USA 115, 11597-11602 (2018). For assays determining the effect of flavonoids on pNPP hydrolysis, a 96 well half-area plate was prepared by first filling each well to be tested with 18 μL of 50 μM pNPP and 25 μL of running buffer (43.4 μM HEPES (pH 7.4), 2.2 μM dithiothreitol, 0.44% acetylated bovine serum albumin, 22.2 μM NaCl, 4.4 μM EDTA), and 2 μL of DMSO containing the desired concentration of flavonoid and/or peptide. PTPRD1 was diluted 1:50 in a dilution buffer (22.9 μM pH 7.4 HEPES, 1% acetylated bovine serum albumin, 4.6 μM dithiothreitol). At the zero time point, 5 uL of this solution was added to each well, and the optical density was measured in 36 second intervals at 405 nm. Results were plotted and the slopes of the linear region were fit. All experiments were performed three times with three wells dedicated to each experimental condition in each experiment.

[1] = target: T2, PTPRD D1 phosphatase (SEQ ID NO: 1) (Homo sapiens, UniProt P23468); assay: Orthophosphate release assay (malachite green/molybdate) with phosphopeptide substrates; settings: for PTPRD's activity in dephosphorylating CDK5 phosphopeptide (positive allosteric modulation): pY15 CDK5 phosphopeptide, flavonoid 10^−4 M (FIG. 7); for PTPRD's activity in dephosphorylating CDK5 phosphopeptide (positive allosteric modulation) / PTPRD's activity in dephosphorylating GSK3 phosphopeptide (positive allosteric modulation): vs vehicle; for PTPRD's activity in dephosphorylating GSK3 phosphopeptide (positive allosteric modulation): pYGSK3 phosphopeptide, flavonoid 10^−4 M (FIG. 8); for normalized rates of liberation of orthophosphate from pY15CDK5 alanine substitution mutants vs wildtype: FIG. 5, Glu-substitution mutants (1, 4, 6) reductions, Lys-substitution mutants (2, 7) increases
T2 construct: His6 (N); made in house; host or cells: E. coli (vector optimized for E. coli codon use)
T2 sequence (P23468 with tags, fused parts or gaps): T1 sequence (P23468 with tags, fused parts or gaps)
Source text: The following examples utilized phosphatase protein produced from a His-tagged D1 phosphatase domain synthesized expression vector optimized for E. coli codon use (SEQ ID NO: 1). This protein was purified to >95% purity and was active in hydrolyzing pNPP substrate (FIG. 1). Human wildtype and mutant phospho- and dephospho-GSK3β/GSK3α and CDK5 peptides were synthesized (Pierce/ThermoFisher, SEQ ID NOs: 2-12) and control END(pY)INASL peptide (Promega, SEQ ID NO: 13) was purchased. Flavonoids were purchased from Thermo-Fisher, Aldrich, Cayman Chemical and AK Scientific. Purities were >95%.
Orthophosphate release assays (Promega V2471) used Malachite green and molybdate with spectrophotometric detection of liberated free orthophosphate from test phosphopeptides compared to control and mutant peptides with assessments for the times indicated. Reactions were carried out in a half-area 96-well plate, with three wells dedicated for each time point. To each experimental well, we added a mixture of 18 μL of ultrapure water, 25 μL of running buffer, 1 μL of a 10 mM DMSO solution of the desired peptide, and 1 μL of DMSO containing a desired concentration of flavonoid, or 1 μL DMSO for control experiments. The supplied molybdate dye mixture (50 μL) was added at t=0, followed by 5 μL of a 1:100 dilution of enzyme in the aforementioned dilution buffer. Other wells were initiated via the addition of 5 μL of the diluted enzyme mixture@t=0 and terminated at the desired timepoints by addition of 50 μL of the dye solution. Wells were read@605 nm.

[2] = target: T2, PTPRD D1 phosphatase (SEQ ID NO: 1); assay: as above; settings: peptide as substrate; FIG. 1

Row | Compound | competition for PTPRD phosphatase's hydrolysis of pNPP (human PTPRD phosphatase) | PTPRD's activity in dephosphorylating CDK5 phosphopeptide (positive allosteric modulation) [1] | PTPRD's activity in dephosphorylating GSK3 phosphopeptide (positive allosteric modulation) [1] | normalized rates of liberation of orthophosphate from pY15CDK5 alanine substitution mutants vs wildtype [1] | further results
1 | YEKLEKIGEGTYGTVFKAKN [dephospho CDK5 peptide, CDK5 wildtype dephosphopeptide] | inactive | – | – | – | –
2 | O=c1c(O)c(-c2ccc(O)c(O)c2)oc2cc(O)ccc12 [fisetin] | – | trend-level | significant | – | –
3 | QLVRGEPNVSYICSRYYRAPE (QLVRGEPNVSSYICSRYYRAPE) [dephospho GSK3β, GSK3α peptide, GSK3β/α wildtype dephosphopeptide] | inactive | – | – | – | –
4 | O=c1c(O)c(-c2cc(O)c(O)c(O)c2)oc2cc(O)cc(O)c12 [myricetin] | – | trend-level | significant | – | –
5 | YEALEAIGEGT-pY-GTVFKAKN [mutant 7] | – | – | – | nominally-significant increases in activity | –
6 | O=c1c(O)c(-c2ccc(O)cc2O)oc2cc(O)cc(O)c12 [morin] | – | trend-level | significant | – | –
7 | O=c1c(O)c(-c2ccc(O)c(O)c2)oc2cc(O)cc(O)c12 [quercetin] | – | increased | increased | – | stimulation of orthophosphate liberation from phosphopeptides by PTPRD phosphatase, dose-response ([1]; FIG. 9, pYGSK3 and pYCDK5 phosphopeptides): active at micromolar concentrations
8 | QLVRGEPNVS-pY-ICSRYYRAPE [GSK3 phosphopeptide] | competes | – | – | – | liberation of orthophosphate from phosphopeptide by PTPRD's phosphatase [2]: substantial liberation of orthophosphate
9 | YEKLEKIGEGT-pY-GTVFKAKN [CDK5 phosphopeptide] | competes | – | – | – | liberation of orthophosphate from phosphopeptide by PTPRD's phosphatase [2]: rates similar to those found for the generic positive control substrate
10 | YEALEKIGEGT-pY-GTVFKAKN [mutant 4] | – | – | – | trends | –
11 | YEKLEAIGEGT-pY-GTVFKAKN [mutant 2] | – | – | – | nominally-significant increases in activity | –
12 | YEKLEKIGAGT-pY-GTVFKAKN [mutant 1] | – | – | – | trends | –
13 | YAKLAKIGAGT-pY-GTVFKAKN [mutant 6] | – | – | – | nominally-significant (6) reductions in activity | –
